Reference: the supplement of paper PMC7125110
± gives the standard error. For some assays here: This sample holds only a part of the variants without activity.

B1: glmS ribozyme (parent)
chain: AUAAAAGCGCCAGAACUACAGAAAUGUAGUUGACGAGGAGGAGGUUUAUCGAAUUUUCGGCGGAUGCCUCCAAA

What was measured:
Details in all cases: with glucosamine-6-phosphate
glucosamine-6-phosphate [1] = variants of: B1; assay: kcat; higher = faster cleavage; RNA array
Summary of the method: (§1)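 Tiles of sequenced MiSeq chips were imaged over ~14 h at 37 °C. On them, barcoded ribozyme variants had been transcribed in situ by E. coli RNA polymerase and were tracked via a hybridised Cy3 probe while glucosamine-6-phosphate (40 μM to 10 mM) in HEPES/KCl/Mg(OAc)2 buffer flowed in. Per-tile medians, normalised to baseline and to non-cleaving reference variants, were fit to one- or two-exponential decays for kobs, and weighted Michaelis–Menten fits gave kcat and KM.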

glucosamine-6-phosphate [2] = variants of: B1; assay: self-cleavage kobs at 160 uM GlcN6P; higher = faster cleavage; RNA array
Summary of the method: as §1

glucosamine-6-phosphate [3] = variants of: B1; assay: self-cleavage kobs at 2500 uM GlcN6P; higher = faster cleavage; RNA array
Summary of the method: as §1

glucosamine-6-phosphate [4] = variants of: B1; assay: self-cleavage kobs at 10000 uM GlcN6P; higher = faster cleavage; RNA array
Summary of the method: as §1

glucosamine-6-phosphate [5] = variants of: B1; assay: self-cleavage kobs at 640 uM GlcN6P; higher = faster cleavage; RNA array
Summary of the method: as §1

glucosamine-6-phosphate [6] = variants of: B1; assay: KM; higher = weaker cofactor use; RNA array
Summary of the method: as §1

glucosamine-6-phosphate [7] = variants of: B1; assay: self-cleavage kobs at 40 uM GlcN6P; higher = faster cleavage; RNA array
Summary of the method: as §1

Variant | kcat (glucosamine-6-phosphate [1]) | self-cleavage kobs at 160 uM GlcN6P (glucosamine-6-phosphate [2]) | self-cleavage kobs at 2500 uM GlcN6P (glucosamine-6-phosphate [3]) | self-cleavage kobs at 10000 uM GlcN6P (glucosamine-6-phosphate [4]) | self-cleavage kobs at 640 uM GlcN6P (glucosamine-6-phosphate [5]) | KM (glucosamine-6-phosphate [6]) | self-cleavage kobs at 40 uM GlcN6P (glucosamine-6-phosphate [7])
G60A G63C | < 1e-05 s⁻¹ | < 1e-05 s⁻¹ | < 1e-05 s⁻¹ | < 1e-05 s⁻¹ | – | – | –
A15C U46A | 0.000358 ± 0.00016 s⁻¹ | – | 0.000152 ± 3.8e-05 s⁻¹ | 0.000416 ± 9.4e-05 s⁻¹ | 0.000102 ± 2.1e-05 s⁻¹ | – | –
U47G U55C | 0.00713 ± 0.0025 s⁻¹ | 0.00147 ± 0.00034 s⁻¹ | 0.00386 ± 0.0012 s⁻¹ | 0.00759 ± 0.0024 s⁻¹ | 0.00372 ± 0.00087 s⁻¹ | 1030 ± 470 µM | 0.000233 ± 4.3e-05 s⁻¹
A39C G44A | 3.56e-05 ± 1.2e-05 s⁻¹ | – | 5.47e-05 ± 1.1e-05 s⁻¹ | 2.63e-05 ± 8.1e-06 s⁻¹ | – | – | –
A6U C16U C68U | 9.14e-05 ± 3.2e-06 s⁻¹ | – | 7.4e-05 ± 1.9e-05 s⁻¹ | 8.55e-05 ± 2e-05 s⁻¹ | – | 625 ± 120 µM | –
U65A | 0.0061 ± 0.001 s⁻¹ | 0.000336 ± 1.5e-05 s⁻¹ | 0.00375 ± 0.00015 s⁻¹ | 0.00502 ± 0.00012 s⁻¹ | 0.00117 ± 3.3e-05 s⁻¹ | 2260 ± 500 µM | 0.00012 ± 2.4e-06 s⁻¹
U54G G66U | 0.00193 ± 0.00025 s⁻¹ | 0.000183 ± 2.7e-05 s⁻¹ | 0.000956 ± 0.00014 s⁻¹ | 0.00181 ± 0.00013 s⁻¹ | 0.000509 ± 4.8e-05 s⁻¹ | 1570 ± 340 µM | 5.67e-05 ± 5.9e-06 s⁻¹
C11U U47C | 8.97e-05 ± 5.3e-06 s⁻¹ | – | 5.91e-05 ± 8.5e-06 s⁻¹ | 8.15e-05 ± 8.5e-06 s⁻¹ | 4.05e-05 ± 1.7e-05 s⁻¹ | 1150 ± 290 µM | –
A33C G37A | < 1e-05 s⁻¹ | < 1e-05 s⁻¹ | – | – | – | – | < 1e-05 s⁻¹
G38C C71U | < 1e-05 s⁻¹ | – | – | – | < 1e-05 s⁻¹ | – | < 1e-05 s⁻¹
C11A C58A | 2e-05 ± 2.2e-07 s⁻¹ | < 1e-05 s⁻¹ | – | – | < 1e-05 s⁻¹ | 1680 ± 98 µM | < 1e-05 s⁻¹
U31C G59U | < 1e-05 s⁻¹ | – | – | – | < 1e-05 s⁻¹ | – | < 1e-05 s⁻¹
C58U G66C | < 1e-05 s⁻¹ | < 1e-05 s⁻¹ | – | – | < 1e-05 s⁻¹ | – | –
G37C A64G | 9.23e-05 ± 9.1e-06 s⁻¹ | – | 4.35e-05 ± 9.1e-06 s⁻¹ | 7.49e-05 ± 8e-06 s⁻¹ | – | 2450 ± 790 µM | –
C16A A53C | 0.000269 ± 1.8e-05 s⁻¹ | 3.05e-05 ± 1.2e-05 s⁻¹ | 0.000164 ± 2.3e-05 s⁻¹ | 0.000226 ± 2.5e-05 s⁻¹ | 6.66e-05 ± 1.2e-05 s⁻¹ | 1770 ± 270 µM | –
A15G G62C U69G | 1.74e-05 ± 5.1e-06 s⁻¹ | – | – | – | – | – | –
C50U G59A | < 1e-05 s⁻¹ | < 1e-05 s⁻¹ | < 1e-05 s⁻¹ | < 1e-05 s⁻¹ | – | – | < 1e-05 s⁻¹

Variant | kcat (glucosamine-6-phosphate [1]) | self-cleavage kobs at 160 uM GlcN6P (glucosamine-6-phosphate [2]) | self-cleavage kobs at 2500 uM GlcN6P (glucosamine-6-phosphate [3]) | self-cleavage kobs at 10000 uM GlcN6P (glucosamine-6-phosphate [4]) | self-cleavage kobs at 640 uM GlcN6P (glucosamine-6-phosphate [5]) | KM (glucosamine-6-phosphate [6]) | self-cleavage kobs at 40 uM GlcN6P (glucosamine-6-phosphate [7])
U54G U55A C70G | 0.000128 ± 1.7e-05 s⁻¹ | – | 0.000157 ± 2.6e-05 s⁻¹ | 0.000145 ± 2.6e-05 s⁻¹ | 0.000102 ± 1.5e-05 s⁻¹ | – | 6.4e-05 ± 1.6e-05 s⁻¹
U45A U69G | 6.38e-05 ± 2e-05 s⁻¹ | – | 0.000109 ± 3.2e-05 s⁻¹ | – | 5.46e-05 ± 1.9e-05 s⁻¹ | – | –
G60A A64G | 2.24e-05 ± 4.8e-07 s⁻¹ | – | – | – | – | 1390 ± 160 µM | –
A6U A15C A48U U69G | 2.37e-05 ± 7.1e-06 s⁻¹ | – | – | – | – | – | < 1e-05 s⁻¹
A14C G32U | 0.0014 ± 6.9e-05 s⁻¹ | 6.08e-05 ± 2.1e-05 s⁻¹ | 0.000576 ± 7.9e-05 s⁻¹ | 0.00103 ± 0.00012 s⁻¹ | 0.000206 ± 3e-05 s⁻¹ | 3610 ± 300 µM | –
G63U C70G | 2.12e-05 ± 4.8e-06 s⁻¹ | – | 2.19e-05 ± 1e-05 s⁻¹ | – | 2.59e-05 ± 1.1e-05 s⁻¹ | – | –
U45C U65A C67G | 0.00116 ± 0.00022 s⁻¹ | – | – | 0.000996 ± 0.00022 s⁻¹ | 0.000279 ± 0.0001 s⁻¹ | 1660 ± 630 µM | 3.4e-05 ± 1.6e-05 s⁻¹
C16G G40C | 0.0003 ± 2.6e-05 s⁻¹ | – | 0.000212 ± 5.8e-05 s⁻¹ | 0.000252 ± 3.6e-05 s⁻¹ | 8.17e-05 ± 2e-05 s⁻¹ | 1660 ± 360 µM | –
A64G C67A | 0.00338 ± 0.00073 s⁻¹ | 0.000303 ± 4.4e-05 s⁻¹ | 0.0018 ± 0.00034 s⁻¹ | 0.00346 ± 0.00059 s⁻¹ | 0.000794 ± 0.00012 s⁻¹ | 1730 ± 520 µM | 9.53e-05 ± 1.7e-05 s⁻¹
C34A G37U C68U | < 1e-05 s⁻¹ | – | – | – | – | – | < 1e-05 s⁻¹
A12U U31G U47C | 0.000915 ± 0.00036 s⁻¹ | – | 0.00136 ± 0.00036 s⁻¹ | 0.000748 ± 0.00013 s⁻¹ | 0.000923 ± 0.00024 s⁻¹ | – | –
U45G A53G | 0.0084 ± 0.0028 s⁻¹ | 0.000367 ± 0.00012 s⁻¹ | 0.00535 ± 0.0012 s⁻¹ | 0.00681 ± 0.0011 s⁻¹ | 0.00204 ± 0.00042 s⁻¹ | 2020 ± 990 µM | 0.000258 ± 4.3e-05 s⁻¹
C50A C67A | 2.1e-05 ± 4.7e-06 s⁻¹ | – | – | – | – | – | –
G13A G32U | 0.000303 ± 3.2e-05 s⁻¹ | – | 0.000147 ± 2.3e-05 s⁻¹ | 0.000221 ± 3.7e-05 s⁻¹ | 4.76e-05 ± 1e-05 s⁻¹ | 3170 ± 600 µM | –
A6G A12C | 0.000313 ± 8.2e-05 s⁻¹ | – | 6.08e-05 ± 3e-05 s⁻¹ | 0.000159 ± 1.7e-05 s⁻¹ | – | – | –
A39U G40A | 0.00855 ± 0.0042 s⁻¹ | 0.000664 ± 0.0001 s⁻¹ | 0.00537 ± 0.0012 s⁻¹ | 0.00952 ± 0.0017 s⁻¹ | 0.00165 ± 0.00021 s⁻¹ | – | 0.000239 ± 2.5e-05 s⁻¹
G29A U47A | 0.00354 ± 0.0016 s⁻¹ | 0.000152 ± 2.6e-05 s⁻¹ | 0.00153 ± 0.00024 s⁻¹ | 0.00308 ± 0.00042 s⁻¹ | 0.000727 ± 0.00012 s⁻¹ | – | 0.000101 ± 1.2e-05 s⁻¹
